The source of these data is the supplement of paper PMC10567573.

A short description of the data set: protein stability index of a GFP-peptide fusion (GPS, HEK-293T) (PSI 1-6); higher = more stable. The note with it: c terminus: a fixed tail appended.

± gives the standard deviation.
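Note: 24-mer peptide tiles fused after GFP, lentivirally expressed, FACS-sorted into six equal bins by GFP/DsRed ratio, decoded by Illumina sequencing, PSI is the read-weighted mean bin number.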

For KLKGAEVTYMNMTAYNKGRLQSSF [PLD5], the protein stability index by setting is: (treatment: DMSO) 2.36 ± 0.22; (treatment: MLN4924 1 uM, 8 h) 2.72 ± 0.22.

In the case of KLNKPPETLITTIDSSSSWWTNWV [CYB5A], the protein stability index was found to be 2.64 ± 0.23 (treatment: DMSO) and 2.47 ± 0.35 (treatment: MLN4924 1 uM, 8 h).

KLQVRLATKTEPKKLEKYLQKLSA [ELOA2]: the protein stability index is, setting by setting: (treatment: DMSO) 2.31 ± 0.41; (treatment: MLN4924 1 uM, 8 h) 2.81 ± 0.42.

Turning to KLYHQSKGPGAPQYPAGTQGEQLE [SPSB2], the protein stability index was determined as 4.72 ± 0.29 (treatment: DMSO) and 5 ± 0.32 (treatment: MLN4924 1 uM, 8 h).

Consider KMNDSEGMDPERLKAFNMFVRLFV [NOL4L], for which the protein stability index is, setting by setting: (treatment: DMSO) 2.08 ± 0.11; (treatment: MLN4924 1 uM, 8 h) 2.23 ± 0.26.

With KMRMGGRVDFEEFVELIGPKLREE [CABP4], the protein stability index runs as follows: (treatment: DMSO) 3.62 ± 0.11; (treatment: MLN4924 1 uM, 8 h) 3.31 ± 0.12.

For KQLALDHFKKTKKMGGKDFSFRYQ [ATL3], the protein stability index runs as follows: (treatment: DMSO) 2.86 ± 0.17; (treatment: MLN4924 1 uM, 8 h) 3.12 ± 0.19.

As for KQLEFCFSRENLSKDLYLISQMDS [LARP4], the protein stability index reads like this: (treatment: DMSO) 2.4 ± 0.2; (treatment: MLN4924 1 uM, 8 h) 2.33 ± 0.28.

On to KQTGIVFGSFLLLLFSLTQFSVVS [RTN1], for which the protein stability index (treatment: DMSO) is 3.08 ± 0.46 and the protein stability index (treatment: MLN4924 1 uM, 8 h) was found to be 3.48 ± 0.38.

As to KRAESDSRKSSIPNNKEIPSHHPT [PTPRD], the protein stability index runs as follows: (treatment: DMSO) 5.151 ± 0.046; (treatment: MLN4924 1 uM, 8 h) 5.08 ± 0.078.

Take KRLSRFDIEMSMRGDIFERIVHLQ [NLN]: the protein stability index was 1.84 ± 0.33 (treatment: DMSO) and 2 ± 0.026 (treatment: MLN4924 1 uM, 8 h).

With KSFSMANGLNARMMHGGSYSLTTS [RAB40B], the protein stability index by setting is: (treatment: DMSO) 3.1 ± 0.2; (treatment: MLN4924 1 uM, 8 h) 3.18 ± 0.2.

On to KSGAIMSALSDTEIQREIGISNAL [PPFIA4], for which the protein stability index by setting is: (treatment: DMSO) 4.02 ± 0.36; (treatment: MLN4924 1 uM, 8 h) 4.13 ± 0.18.

For the sequence KSRLSSVSVTYCSVSQDFPGSNLN [ETS2], the protein stability index runs as follows: (treatment: DMSO) 2.62 ± 0.26; (treatment: MLN4924 1 uM, 8 h) 2.64 ± 0.18.

KTDFGSCLLQPPSCPNGMSAENGL [DLC1]: the protein stability index reads like this: (treatment: DMSO) 3.94 ± 0.14; (treatment: MLN4924 1 uM, 8 h) 3.87 ± 0.19.

As for KTKWTKEDGHRTSTSAVPNLFVPL [ADD1], the protein stability index reads like this: (treatment: DMSO) 3.27 ± 0.26; (treatment: MLN4924 1 uM, 8 h) 3.22 ± 0.28.

Consider KTSLLDQLTNTSGTVIGVTSCIVI [NETO1], for which the protein stability index runs as follows: (treatment: DMSO) 3.14 ± 0.51; (treatment: MLN4924 1 uM, 8 h) 2.76 ± 0.43.

Regarding KVESGAWIGYEHTSFCGQQFILER [CRYBA1], the protein stability index is, setting by setting: (treatment: DMSO) 2.18 ± 0.26; (treatment: MLN4924 1 uM, 8 h) 2.18 ± 0.19.

Consider KVLEALKLKGAEVTYMNMTAYNKG [PLD5], for which the protein stability index is, setting by setting: (treatment: DMSO) 2.18 ± 0.6; (treatment: MLN4924 1 uM, 8 h) 2.42 ± 0.39.

KVLLDCGADPDSRDFDNNTPLHIA [FEM1A]: the protein stability index is 4.02 ± 0.17 (treatment: DMSO) and 4.07 ± 0.15 (treatment: MLN4924 1 uM, 8 h).

For the sequence KVVKSAQHYTETALDEIKLLKCVR [SRPK2], the protein stability index (treatment: DMSO) worked out at 2.72 ± 0.32 and the protein stability index (treatment: MLN4924 1 uM, 8 h) is 2.68 ± 0.21.

In the case of KVYTHPKWNTQTKARSYSYPHCTG [ZC2HC1C], the protein stability index was found to be 2.73 ± 0.36 (treatment: DMSO) and 2.9 ± 0.39 (treatment: MLN4924 1 uM, 8 h).

With KYMPHLCQDSSGEVSCQCQLHPPR, the protein stability index was determined as 2.76 ± 0.58 (treatment: DMSO) and 3.6 ± 0.9 (treatment: MLN4924 1 uM, 8 h).

As for KYVSKELAKEIRVKAEPFIKWLKE [EIF5], the protein stability index runs as follows: (treatment: DMSO) 3.08 ± 0.4; (treatment: MLN4924 1 uM, 8 h) 3.07 ± 0.46.

As to LAEMKDDSDSEKQQQIHHIKNLYA [VPS39], the protein stability index reads like this: (treatment: DMSO) 4.16 ± 0.25; (treatment: MLN4924 1 uM, 8 h) 4.35 ± 0.44.

For the sequence LAHMIAECKKLFQVPEEMSRCRNS [DLC1], the protein stability index was found to be 2.67 ± 0.34 (treatment: DMSO) and 2.68 ± 0.34 (treatment: MLN4924 1 uM, 8 h).

For LATLEGDDPSLRKTHSSPALSQGH [PSD2], the protein stability index (treatment: DMSO) worked out at 4.44 ± 0.14 and the protein stability index (treatment: MLN4924 1 uM, 8 h) is 4.6 ± 0.16.

Turning to LCATDFKFAMYPPSMIATGSVGAA [CCND2], the protein stability index reads like this: (treatment: DMSO) 2.38 ± 0.23; (treatment: MLN4924 1 uM, 8 h) 2.38 ± 0.29.

Consider LCGQAAGAASLPSELIVHIFSFLP [FBXO33], for which the protein stability index is, setting by setting: (treatment: DMSO) 2.54 ± 0.72; (treatment: MLN4924 1 uM, 8 h) 2.29 ± 0.18.

Regarding LCPSRAELDRWLYHLEKQTALLGG [PLEKHN1], the protein stability index is, setting by setting: (treatment: DMSO) 2.53 ± 0.21; (treatment: MLN4924 1 uM, 8 h) 2.62 ± 0.22.

In the case of LDCEGTTNKMKSPETKQRKLSPLR [KMT2E], the protein stability index reads like this: (treatment: DMSO) 5.39 ± 0.22; (treatment: MLN4924 1 uM, 8 h) 5.05 ± 0.37.

As to LDDSTVARELAITDSEHSDAEVSC [RETREG3], the protein stability index is 5.52 ± 0.23 (treatment: DMSO) and 5.47 ± 0.24 (treatment: MLN4924 1 uM, 8 h).

LDITNPKAVLENALRNFACLTTGD [UFD1]: the protein stability index runs as follows: (treatment: DMSO) 2.65 ± 0.21; (treatment: MLN4924 1 uM, 8 h) 2.46 ± 0.19.

In turn, LDPASLAWLTEEEPEPAEVTSTSQ [DDIT3] displayed a protein stability index (treatment: DMSO) of 5.51 ± 0.17 and a protein stability index (treatment: MLN4924 1 uM, 8 h) of 5.53 ± 0.31.

As for LDPSSGAIHVLGPIDFEESRFYEI [PCDHGC5], the protein stability index is, setting by setting: (treatment: DMSO) 2.27 ± 0.2; (treatment: MLN4924 1 uM, 8 h) 2.25 ± 0.26.

In turn, LDSGIHSGATTTAPSLSGKGNPEE [CTNNB1] showed a protein stability index (treatment: DMSO) of 5.64 ± 0.29 and a protein stability index (treatment: MLN4924 1 uM, 8 h) of 5.54 ± 0.21.

Regarding LDSSHSPSSLSSSEGSSSSSSSSS [NFE2L1], the protein stability index reads like this: (treatment: DMSO) 5.51 ± 0.17; (treatment: MLN4924 1 uM, 8 h) 5.46 ± 0.15.
